± gives the uncertainty stated by the source.
B1: Ankyrin-1, residues 1405 to 1484; numbered along this chain, P16157 (parent)
chain: MKMAVISEHLGLSWAELARELQFSVEDINRIRVENPNSLLEQSVALLNLWVIREGQNANMENLYTALQSIDRGEIVNMLE

Variants of: B1
Assay: abundance fitness (aPCA) (normalised: wild type 0, dead -1); higher = more abundant; growth selection in yeast, the domain comes from the species named
Settings: Homo sapiens

First: MKMAVISEHLGLSWAELARELQFSVEDINRIRVENPNSLLEQSVALLNLWVIREGQNAIMENLYTALQSIDRGEIVNMLE
Second: MKMAVISEHLGLSWAELARELQFSVEDINRIRVENPNSLLEQSVALLNLWVIREGQNANMENLYTALQSWDRGEIVNMLE
The abundance fitness of the first is higher: -0.314 ± 0.2 for the first, -0.99 ± 0.28 for the second.

Compared with MKMAVISEHLGLSWAELARPLQFSVEDINRIRVENPNSLLEQSVALLNLWVIREGQNANMENLYTALQSIDRGEIVNMLE, MKMAVISEHLGLSWAELARFLQFSVEDINRIRVENPNSLLEQSVALLNLWVIREGQNANMENLYTALQSIDRGEIVNMLE is higher in abundance fitness: -0.996 ± 0.17 for the first, -0.345 ± 0.093 for the second.

MKMAVISEHLGLSWAELARCLQFSVEDINRIRVENPNSLLEQSVALLNLWVIREGQNANMENLYTALQSIDRGEIVNMLE and MKMAVISQHLGLSWAELARELQFSVEDINRIRVENPNSLLEQSVALLNLWVIREGQNANMENLYTALQSIDRGEIVNMLE are within error of each other in abundance fitness: -0.125 ± 0.077 for the first, 0.067 ± 0.17 for the second.

MKMAVISEHLGLSWAELARELQFSVEDINRIRVENPNSLLEQSVALLNLFVIREGQNANMENLYTALQSIDRGEIVNMLE and MKMAVISEHLGLSWAELARELQFSVEDINRIRVENPNSLLEQSVALLNLSVIREGQNANMENLYTALQSIDRGEIVNMLE are within error of each other in abundance fitness: -0.713 ± 0.28 for the first, -0.734 ± 0.14 for the second.

MKMAVISEHLGLSWAELARELQFSVEDINRIRVENPNSLAEQSVALLNLWVIREGQNANMENLYTALQSIDRGEIVNMLE and MKMAVISEHLGLSWAELARELQFSVEDINRIRVENPNSLLEQSVALLNLWVIREGQNANMENLYTALQQIDRGEIVNMLE are within error of each other in abundance fitness: -0.11 ± 0.052 for the first, -0.137 ± 0.11 for the second.

First: MKMAVISEHLGLSWAELARELQFSVEDQNRIRVENPNSLLEQSVALLNLWVIREGQNANMENLYTALQSIDRGEIVNMLE
Second: MKMAVISEHLGLSWAELARELQFSVEDINRIRVENPNSLLEQSVALLNLWVIREGQNANMESLYTALQSIDRGEIVNMLE
The abundance fitness of the first is lower: -0.577 ± 0.22 for the first, -0.081 ± 0.076 for the second.

MKMAVISEHLGLSWAELARELQFSVEDINRIRVENPNSLLETSVALLNLWVIREGQNANMENLYTALQSIDRGEIVNMLE and MKMAVISEHLGLSWAELARELQFSVEDINRIRVENPNSLLEDSVALLNLWVIREGQNANMENLYTALQSIDRGEIVNMLE are within error of each other in abundance fitness: -0.723 ± 0.2 for the first, -0.698 ± 0.17 for the second.

MKMAVISEHLGLSWAELARELQFSVEDINRIRVENPNSLLEISVALLNLWVIREGQNANMENLYTALQSIDRGEIVNMLE and MKMAVISEHLGLSWAELARELQFSVEDINRIRVENPNSLLEPSVALLNLWVIREGQNANMENLYTALQSIDRGEIVNMLE are within error of each other in abundance fitness: -0.915 ± 0.27 for the first, -1.04 ± 0.23 for the second.

MKMAYISEHLGLSWAELARELQFSVEDINRIRVENPNSLLEQSVALLNLWVIREGQNANMENLYTALQSIDRGEIVNMLE and MKMAVISEHLGLSWAELARELQFSVEDINRIRVENPNSLLEQSVALLNLWYIREGQNANMENLYTALQSIDRGEIVNMLE are within error of each other in abundance fitness: 0.086 ± 0.091 for the first, -0.023 ± 0.2 for the second.

MKMAVISEHLGLSWAELARELQFSVEDINRIRVENPNSLLEQSVALLNLWKIREGQNANMENLYTALQSIDRGEIVNMLE and MKMAVISEHLGLSWAELARELQFSVEDINRIRVENPNSLLEQSVALLNLWSIREGQNANMENLYTALQSIDRGEIVNMLE are within error of each other in abundance fitness: 0.156 ± 0.1 for the first, 0.128 ± 0.051 for the second.

Going from MKMAVISEHLGLSWAELARELQFSVEDINRIRVENPNSPLEQSVALLNLWVIREGQNANMENLYTALQSIDRGEIVNMLE to MKMAVISEHLGLSWAELARELQFSVWDINRIRVENPNSLLEQSVALLNLWVIREGQNANMENLYTALQSIDRGEIVNMLE, the abundance fitness falls from 0.058 ± 0.12 to -0.197 ± 0.054.

MKMAVISEHLGLSWAELARELQFSVQDINRIRVENPNSLLEQSVALLNLWVIREGQNANMENLYTALQSIDRGEIVNMLE and MKMAVISEHLGLSWAELARELQFSVEDINRIRVENPNSLLEQSVALLNLWVIREGQNANMENLYYALQSIDRGEIVNMLE are within error of each other in abundance fitness: -0.119 ± 0.098 for the first, -0.132 ± 0.11 for the second.

Compared with MKMAVISEHLGLSWAELARELQFSVEDINRIRVENPNSLLEQSVALLNLWVIREGQNANMENLYTALQSIDRGEIVNMKE, MKMAVISEHLGLSWAELARELQFSVEIINRIRVENPNSLLEQSVALLNLWVIREGQNANMENLYTALQSIDRGEIVNMLE is higher in abundance fitness: -0.429 ± 0.21 for the first, -0.043 ± 0.094 for the second.

Going from MKMAVISEHLGLSWAELARELQFSVEWINRIRVENPNSLLEQSVALLNLWVIREGQNANMENLYTALQSIDRGEIVNMLE to MKMAVISEHLGLSWAELARELQFSVEDINRIRVENPNSLLSQSVALLNLWVIREGQNANMENLYTALQSIDRGEIVNMLE, the abundance fitness rises from -0.89 ± 0.15 to -0.005 ± 0.048.

First: MKMAVISEHLGLSWAELARELQFSVEDINRIRVENPNSLLHQSVALLNLWVIREGQNANMENLYTALQSIDRGEIVNMLE
Second: MKMAVISEHLGLSWAELARELQFSVEDINRIRVENPNSLLEQSVALLNLWVIREGQNANMENLYTALQSIDRGEIANMLE
The abundance fitness of the first is higher: -0.161 ± 0.14 for the first, -0.423 ± 0.08 for the second.

MKMAVISEHLGLSWAELARELQFSVEDINRIRVENPNSLLEQSVALLNLWVIREGQNANMENLYTALQSIDRGEICNMLE and MKMQVISEHLGLSWAELARELQFSVEDINRIRVENPNSLLEQSVALLNLWVIREGQNANMENLYTALQSIDRGEIVNMLE are within error of each other in abundance fitness: -0.051 ± 0.095 for the first, -0.041 ± 0.11 for the second.

MKMAVISEHLGLSNAELARELQFSVEDINRIRVENPNSLLEQSVALLNLWVIREGQNANMENLYTALQSIDRGEIVNMLE and MKMAVISEHLGLSAAELARELQFSVEDINRIRVENPNSLLEQSVALLNLWVIREGQNANMENLYTALQSIDRGEIVNMLE are within error of each other in abundance fitness: -0.865 ± 0.24 for the first, -0.799 ± 0.16 for the second.

— the Human Domainome abundance scans (Beltran et al. 2025)
